Assay results as given in the supplement of paper PMC10567573.

B1: CDC25B (parent)
chain: KSPIAPCSLDKRVILIFHCEFSSE

Variants of: B1
Assay: protein stability index of a GFP-peptide fusion (GPS, HEK-293T) (PSI 1-6); higher = more stable
Settings: c terminus: a fixed tail appended
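Note: lentivirally expressed fusions sorted by FACS into six bins by GFP to DsRed ratio, PSI derived from sequencing read proportions per bin multiplied by bin number.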

Variant	protein stability index
KSPIAPCSLDKRVMLIFHCEFSSE	2.35
KSPIAPCSLDKRVHLIFHCEFSSE	3.76
KSPIAPCSLDKRVTLIFHCEFSSE	2.1
KSPIAPCSLDKRVLLIFHCEFSSE	1.95
KSPIAPCSLDKRVELIFHCEFSSE	2.07
KSPIAPCSLDKRVVLIFHCEFSSE	2.87
KSPIAPCSLDKRVPLIFHCEFSSE	2.25
KSPIAPCSLDKRVNLIFHCEFSSE	1.96
KSPIAPCSLDKRVALIFHCEFSSE	2.65
KSPIAPCSLDKRVFLIFHCEFSSE	2.94
KSPIAPCSLDKRVGLIFHCEFSSE	1.56
KSPIAPCSLDKRVSLIFHCEFSSE	1.94
KSPIAPCSLDKRVDLIFHCEFSSE	2.54
KSPIAPCSLDKRVQLIFHCEFSSE	1.1
KSPIAPCSLDKRVCLIFHCEFSSE	1.54
KSPIAPCSLDKRVRLIFHCEFSSE	1.79
KSPIAGCSLDKRVILIFHCEFSSE	2.54
KSPIAWCSLDKRVILIFHCEFSSE	3.61
KSPIARCSLDKRVILIFHCEFSSE	1.89
KSPIAHCSLDKRVILIFHCEFSSE	2.23
KSPIAVCSLDKRVILIFHCEFSSE	1.39
KSPIAQCSLDKRVILIFHCEFSSE	4.6
KSPIACCSLDKRVILIFHCEFSSE	2.97
KSPIAYCSLDKRVILIFHCEFSSE	3.74

Variant	protein stability index
KSPIAFCSLDKRVILIFHCEFSSE	3.05
KSPIAPCSLDVRVILIFHCEFSSE	4.34
KSPIAPCSLDCRVILIFHCEFSSE	2.52
KSPIAPCSLDIRVILIFHCEFSSE	3.79
KSPIAPCSLDHRVILIFHCEFSSE	2.1
KSPIAPCSLDFRVILIFHCEFSSE	2.69
KSPIAPCSLDQRVILIFHCEFSSE	2.16
KSPIAPCSLDPRVILIFHCEFSSE	3.23
KSPIAPCSLDLRVILIFHCEFSSE	2.35
KSPIAPCSLDYRVILIFHCEFSSE	2.32
KSPIAPCSLDMRVILIFHCEFSSE	2.9
KSPIYPCSLDKRVILIFHCEFSSE	3
KSPITPCSLDKRVILIFHCEFSSE	2.85
KSPIIPCSLDKRVILIFHCEFSSE	2.65
KSPILPCSLDKRVILIFHCEFSSE	2.58
KSPIHPCSLDKRVILIFHCEFSSE	2.3
KSPIWPCSLDKRVILIFHCEFSSE	2.46
KSPISPCSLDKRVILIFHCEFSSE	2.48
KSPIDPCSLDKRVILIFHCEFSSE	2.57
KSPIEPCSLDKRVILIFHCEFSSE	2.55
KSPINPCSLDKRVILIFHCEFSSE	2.85
KSPIMPCSLDKRVILIFHCEFSSE	1.72
KSPIFPCSLDKRVILIFHCEFSSE	2.93
KSPIQPCSLDKRVILIFHCEFSSE	1.42

Variant	protein stability index
KSPWAPCSLDKRVILIFHCEFSSE	2.72
KSPKAPCSLDKRVILIFHCEFSSE	3.59
KSPMAPCSLDKRVILIFHCEFSSE	4.09
KSPPAPCSLDKRVILIFHCEFSSE	2.2
KSPDAPCSLDKRVILIFHCEFSSE	1.16
KSPGAPCSLDKRVILIFHCEFSSE	4.68
KSPSAPCSLDKRVILIFHCEFSSE	2.89
KSPFAPCSLDKRVILIFHCEFSSE	2.53
KSPYAPCSLDKRVILIFHCEFSSE	3.53
KSPHAPCSLDKRVILIFHCEFSSE	1.94
KSPNAPCSLDKRVILIFHCEFSSE	2.64
KSQIAPCSLDKRVILIFHCEFSSE	3.1
KSTIAPCSLDKRVILIFHCEFSSE	2.17
KSLIAPCSLDKRVILIFHCEFSSE	3.29
KSMIAPCSLDKRVILIFHCEFSSE	3.46
KSWIAPCSLDKRVILIFHCEFSSE	2.17
KSNIAPCSLDKRVILIFHCEFSSE	2.73
KSPIAPCSLDKRVIFIFHCEFSSE	2.88
KSPIAPCSLDKRVIAIFHCEFSSE	2.68
KSPIAPCSLDKRVIPIFHCEFSSE	2.28
KSPIAPCSLDKRVIGIFHCEFSSE	1.39
KSPIAPCSLDKRVIRIFHCEFSSE	1.71
KSPIAPCSLDKRVIIIFHCEFSSE	3.49
KSPIAPCSLDKRVIQIFHCEFSSE	1.84

Variant	protein stability index
KSPIAPCSLDKRVISIFHCEFSSE	1.86
KSPIAPCSLDKRVIDIFHCEFSSE	2.38
KSPIAPCSLDKRVIEIFHCEFSSE	1.83
KSPIAPCSLDKRVIHIFHCEFSSE	1.05
KSPIAPCSLDKRVIKIFHCEFSSE	1.42
KSPIAPCSLDKRVIMIFHCEFSSE	2.88
KSPIAPCSLDKRVIYIFHCEFSSE	2.66
KSPIAPCSLDKRVINIFHCEFSSE	2.21
KSPIAPCSLDKRVITIFHCEFSSE	1.8
KSPIAPCFLDKRVILIFHCEFSSE	2.12
KSPIAPCTLDKRVILIFHCEFSSE	4.2
KSPIAPCWLDKRVILIFHCEFSSE	1.81
KSPIAPCKLDKRVILIFHCEFSSE	2.88
KSPIAPCVLDKRVILIFHCEFSSE	2.5
KSPIAPCMLDKRVILIFHCEFSSE	2.28
KSPIAPCALDKRVILIFHCEFSSE	3.52
KSPIAPCLLDKRVILIFHCEFSSE	1
KSPIAPCGLDKRVILIFHCEFSSE	3.16
KSPIAPCDLDKRVILIFHCEFSSE	2.31
KSPIAPCILDKRVILIFHCEFSSE	2.17
KSPIAPCCLDKRVILIFHCEFSSE	3
KSPIAPCHLDKRVILIFHCEFSSE	3.03
KSPIAPCELDKRVILIFHCEFSSE	1.45
KSPIAPCSLDKREILIFHCEFSSE	1.45

Variant	protein stability index
KSPIAPCSLDKRCILIFHCEFSSE	1.21
KSPIAPCSLDKRYILIFHCEFSSE	2.97
KSPIAPCSLDKRRILIFHCEFSSE	3.12
KSPIAPCSLDKRTILIFHCEFSSE	2.89
KSPIAPCSLDKRLILIFHCEFSSE	2.5
KSPIAPCSLDKRPILIFHCEFSSE	1.49
KSPIAPCSLDKRHILIFHCEFSSE	1.85
KSPIAPCSLDKRIILIFHCEFSSE	3.36
KSPIAPCSLDKRWILIFHCEFSSE	4.17
KSPIAPCSLDKRNILIFHCEFSSE	1.61
KSPIAPCSLDKRSILIFHCEFSSE	3.15
KSPIAPCSLDKRDILIFHCEFSSE	2.51
KSPIAPCSLDKRGILIFHCEFSSE	1.14
KSPIAPCSLDKRKILIFHCEFSSE	1.32
KSPIAPCSLDKRAILIFHCEFSSE	3.2
KSPIAPCSLDKRFILIFHCEFSSE	2.29
KSPIAPCSLDKRQILIFHCEFSSE	1.42
KSPIAPCSTDKRVILIFHCEFSSE	2.22
KSPIAPCSQDKRVILIFHCEFSSE	2.42
KSPIAPCSRDKRVILIFHCEFSSE	3.58
KSPIAPCSNDKRVILIFHCEFSSE	2.78
KSPIAPCSKDKRVILIFHCEFSSE	2.39
KSPIAPCSYDKRVILIFHCEFSSE	3.94
KSPIAPCSGDKRVILIFHCEFSSE	2.92

Variant	protein stability index
KSPIAPCSMDKRVILIFHCEFSSE	2.53
KSPIAPCSWDKRVILIFHCEFSSE	2.9
KSPIAPCSSDKRVILIFHCEFSSE	2.4
KSPIAPCSDDKRVILIFHCEFSSE	2.66
KSPIAPCSPDKRVILIFHCEFSSE	3.63
KSPIAPCSIDKRVILIFHCEFSSE	4.08
KSPIAPCSFDKRVILIFHCEFSSE	2.64
KSPIAPCSVDKRVILIFHCEFSSE	2.37
KSPIAPCSCDKRVILIFHCEFSSE	2.46
KSPIAPCSADKRVILIFHCEFSSE	2.62
KSPIAPCSLTKRVILIFHCEFSSE	3.32
KSPIAPCSLYKRVILIFHCEFSSE	1.66
KSPIAPCSLIKRVILIFHCEFSSE	2.12
KSPIAPCSLCKRVILIFHCEFSSE	2.23
KSPIAPCSLQKRVILIFHCEFSSE	1.71
KSPIAPCSLSKRVILIFHCEFSSE	2.26
KSPIAPCSLVKRVILIFHCEFSSE	2.67
KSPIAPCSLHKRVILIFHCEFSSE	2.05
KSPIAPCSLFKRVILIFHCEFSSE	2.42
KSPIAPCSLGKRVILIFHCEFSSE	2.74
KSPIAPCSLAKRVILIFHCEFSSE	2.95
KSPIAPCSLMKRVILIFHCEFSSE	2.48
KSPIAPCSLPKRVILIFHCEFSSE	3.83
KSPIAPCSLWKRVILIFHCEFSSE	2.94

Variant	protein stability index
KSPIAPCSLDKRVILEFHCEFSSE	1.07
KSPIAPCSLDKRVILVFHCEFSSE	1.06
KSPIAPCSLDKRVILHFHCEFSSE	1.68
KSPIAPCSLDKRVILMFHCEFSSE	2.25
KSPIAPCSLDKRVILGFHCEFSSE	1.4
KSPIAPCSLDKRVILSFHCEFSSE	2.01
KSPIAPCSLDKRVILTFHCEFSSE	2.18
KSPIAPCSLDKRVILRFHCEFSSE	2.5
KSPIAPCSLDKRVILWFHCEFSSE	1.05
KSPIAPCSLDKRVILAFHCEFSSE	1.52
KSPIAPCSLDKRVILDFHCEFSSE	2.92
KSPIAPCSLDKRVILKFHCEFSSE	1.39
KSPIAPCSLDKRVILYFHCEFSSE	2.91
KSPIAPCSLDKRVILQFHCEFSSE	1.52
KSPIAPCSLDKRVILPFHCEFSSE	3.02
KSPIAPCSLDKRVILCFHCEFSSE	2.93
KSPIAPCSLDKRVILNFHCEFSSE	2.54
KSPIAPCSLDKRVILLFHCEFSSE	1.38
KSPIAPCSLDKKVILIFHCEFSSE	3.98
KSPIAPCSLDKDVILIFHCEFSSE	3.43
KSPIAPCSLDKHVILIFHCEFSSE	2.79
KSPIAPCSLDKGVILIFHCEFSSE	2.23
KSPIAPCSLDKSVILIFHCEFSSE	4.14
KSPIAPCSLDKYVILIFHCEFSSE	3.38

Variant	protein stability index
KSPIAPCSLDKFVILIFHCEFSSE	5.41
KSPIAPCSLDKLVILIFHCEFSSE	3.04
KSPIAPCSLDKNVILIFHCEFSSE	2.76
KSPIAPCSLDKMVILIFHCEFSSE	2.89
KSPIAPCSLDKIVILIFHCEFSSE	3.03
KSPIAPCSLDKPVILIFHCEFSSE	2.66
KSPIAPTSLDKRVILIFHCEFSSE	2.55
KSPIAPISLDKRVILIFHCEFSSE	3.17
KSPIAPLSLDKRVILIFHCEFSSE	3.92
KSPIAPASLDKRVILIFHCEFSSE	2.03
KSPIAPNSLDKRVILIFHCEFSSE	2.54
KSPIAPMSLDKRVILIFHCEFSSE	2.15
KSPIAPVSLDKRVILIFHCEFSSE	3.75
KSPIAPGSLDKRVILIFHCEFSSE	2.4
KSPIAPRSLDKRVILIFHCEFSSE	3.39
KSPIAPPSLDKRVILIFHCEFSSE	2.65
KSPIAPKSLDKRVILIFHCEFSSE	2.56
KSPIAPQSLDKRVILIFHCEFSSE	2.01
KSPIAPHSLDKRVILIFHCEFSSE	3.31
KSPIAPSSLDKRVILIFHCEFSSE	2.13
